Results: patent US20050265970

Columns and labels:
[1] = target: Gadd45β-derived peptide 2 (pure synthetic peptide, sequence in FIG. 37C)
[2] = target: T1, His6-Gadd45β (full-length human Gadd45β purified from E. coli), O75293
T1 chain: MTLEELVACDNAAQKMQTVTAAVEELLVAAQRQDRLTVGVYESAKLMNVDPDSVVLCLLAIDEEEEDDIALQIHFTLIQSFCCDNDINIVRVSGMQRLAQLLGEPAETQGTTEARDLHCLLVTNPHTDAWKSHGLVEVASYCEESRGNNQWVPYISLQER

[3] = target: T2, GST-Gadd45β (full-length murine Gadd45β directly fused to GST), P22339
T2 chain: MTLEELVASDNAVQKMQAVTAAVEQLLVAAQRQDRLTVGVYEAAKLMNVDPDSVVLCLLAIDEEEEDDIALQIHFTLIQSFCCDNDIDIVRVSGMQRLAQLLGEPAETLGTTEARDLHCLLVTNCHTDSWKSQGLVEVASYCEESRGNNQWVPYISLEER

[4] = target: Gadd45β-derived peptide 8 (pure synthetic peptide, sequence in FIG. 37C)

B1: FLAG-MKK7 (FLAG-tagged JNKK2) immunoprecipitated from 293 cells (protein)
chain: MAASSLEQKLSRLEAKLKQENREARRRIDLNLDISPQRPRPTLQLPLANDGGSRSPSSESSPQHPTPPARPRHMLGLPSTLFTPRSMESIEIDQKLQEIMKQTGYLTIGGQRYQAEINDLENLGEMGSGTCGQVWKMRFRKTGHVIAVKQMRRSGNKEENKRILMDLDVVLKSHDCPYIVQCFGTFITNTDVFIAMELMGTCAEKLKKRMQGPIPERILGKMTVAIVKALYYLKEKHGVIHRDVKPSNILLDERGQIKLCDFGISGRLVDSKAKTRSAGCAAYMAPERIDPPDPTKPDYDIRADVWSLGISLVELATGQFPYKNCKTDFEVLTKVLQEEPPLLPGHMGFSGDFQSFVKDCLTKDHRKRPKYNKLLEHSFIKRYETLEVDVASWFKDVMAKTESPRTSGVLSQPHLPFFR
[1]
  MKK7 kinase assay with GST-JNK1 substrate: the amino acid regions contained in the overlapping, Gadd45β-derived peptides 2 and 8 are sufficient to recapitulate most of the inhibitory activity of Gadd45β on MKK7
[2]
  GST-JNK1 phosphorylation by MKK7 (kinase assay): Both Gadd45β polypeptides, but neither GST nor His6-EF3, blocked GST-JNK1 phosphorylation by MKK7, in a dose-dependent manner
  JNKK2 kinase activity in vitro (phosphorylation of GST-JNK1): both GST-Gadd45β and His6-Gadd45β effectively suppressed JNKK2 activity, in vitro, even at the lowest concentrations that were tested
[3]
  GST-JNK1 phosphorylation by MKK7 (kinase assay): Both Gadd45β polypeptides, but neither GST nor His6-EF3, blocked GST-JNK1 phosphorylation by MKK7, in a dose-dependent manner
  JNKK2 kinase activity in vitro (phosphorylation of GST-JNK1): both GST-Gadd45β and His6-Gadd45β effectively suppressed JNKK2 activity, in vitro, even at the lowest concentrations that were tested
[4]
  MKK7 kinase assay with GST-JNK1 substrate: the amino acid regions contained in the overlapping, Gadd45β-derived peptides 2 and 8 are sufficient to recapitulate most of the inhibitory activity of Gadd45β on MKK7
